One substance from publication PMC2796180 can be followed below.

The test has as its target GFP-tagged mProVII chains (in the FRET assay) (mouse). As to the kind of experiment: FRET or BRET.

“RFP-tagged wild type mouse mini-procollagen VII α chain (domain or fragment)” returned an FRET efficiency EF of 5.83%.
